Results from paper PMC6943441, “The Meta-Position of Phe^4 in Leu-Enkephalin Regulates Potency, Selectivity, Functional Activity, and Signaling Bias at the Delta and Mu Opioid Receptors” (Molecules, 2019).

Molecular target: mu opioid receptor (Homo sapiens), P35372
Test: competition
Details: modification not given

Chain of mu opioid receptor (Homo sapiens), P35372 (P35372 whole entry): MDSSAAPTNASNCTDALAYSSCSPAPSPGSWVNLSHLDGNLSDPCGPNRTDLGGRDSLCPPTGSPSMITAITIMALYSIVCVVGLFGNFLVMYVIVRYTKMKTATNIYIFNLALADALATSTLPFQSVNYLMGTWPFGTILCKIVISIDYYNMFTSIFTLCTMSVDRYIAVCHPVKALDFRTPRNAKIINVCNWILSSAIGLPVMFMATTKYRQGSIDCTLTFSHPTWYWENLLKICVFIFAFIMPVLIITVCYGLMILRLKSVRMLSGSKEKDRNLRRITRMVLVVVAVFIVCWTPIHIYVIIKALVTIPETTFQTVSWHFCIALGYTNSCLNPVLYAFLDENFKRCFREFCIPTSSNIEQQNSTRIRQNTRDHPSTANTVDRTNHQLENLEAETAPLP

YAGFL [DADLE] showed a Ki of 1.58 nM.
